Assay [1] concerns antigen-specific IgG1 and IgG2. Nature of the assay: Antibody titers in HV-12 (Ac-CYS, Ac-MTP-2, Ac-GST in AS03, irradiated L3). It counts as in vivo, dog. To be noted: for Antibody titers, IgG1, GEOMEAN / Antibody titers, IgG2, GEOMEAN: geometric mean of group; for Antibody titers, IgG1 / Antibody titers, IgG2: individual dogs, after four immunizations, L3 Extract = group E dogs vaccinated with irradiated L3. The method, then:
(§1) Brief Outline of Study Sections: Purpose bred beagles were randomized into five groups. […] groups were given one of three candidate vaccines: Ac-Cystatin, Ac-MTP-2 and Ac-GST in combination with the adjuvant ASO3. One group will serve as the negative control receiving the adjuvant only. Another group will be a positive control immunized with irradiated infective larvae. Each animal's specific antibody response was evaluated by direct ELISA using serum taken prior to the infective challenge. Cellular immune responses were assessed by peripheral (blood cells) lymphoproliferative responses to specific recombinant antigens and/or crude extract of infective larvae (L3) or adult worms. Local cellular immune responses were performed post mortem with lymphocytes extracted from mesenteric lymph nodes and, if considered, spleen. After immunization, animals were challenged with a known number dose of infective third stage larvae of A. caninum. Quantitative ova counts, used to evaluate worm burden, were determined from fecal samples collected three times per week. […] Tissues from different organs were examined macro and microscopically to assess any consequence of the vaccine, parasite or immune related lesions.
(§2) Administration of Test and Control Articles: The vaccines and adjuvant were administered intramuscularly (IM) […] beginning when the dogs are 62+/−4 days old. The vaccines are boosted at 21+/−3-day intervals. Four doses of the vaccines were given 21 days apart (days 0, 21, 42, and […]). The dogs were challenged percutaneously with 500 A. caninum L3, 14 days after the final vaccination.
Serum Samples for Quantitative ELISA Antibody Titers: Animals treated with vaccines containing foreign proteins develop an immune response resulting in an increased level of high affinity serum antibodies that are directed against the antigen. […] White blood cells were collected for immunological measurements nine (9) days after the last boost and at the time of euthanasia to address the cellular immune response status and cytokine production upon in vitro restimulation of lymphocytes.

The subject of a further assay is A. caninum. Put plainly: Canine vaccine trial HV-12, percutaneous challenge with 500 A. caninum L3. It counts as in vivo, dog. To be noted: for Adult Hookworm Worm Counts, Intestine, Male, Average / Adult Hookworm Worm Counts, Intestine, Female, Average / Adult Hookworm Worm Counts, Total, Average: group average; for Adult Hookworm Worm Counts, Intestine, Male, Average: AS03 control 64; for Adult Hookworm Worm Counts, Intestine, Female, Average: AS03 control 71; for Adult Hookworm Worm Counts, Total, Average: AS03 control 137. On the procedure:
as §1, §2
Challenge Infection: Ancylostoma caninum larvae were cultured from the eggs collected in the feces of infected dogs. All hookworms in the infective challenge were approximately equal age (17±7 days). The species identity of the infective larva dose were validated using PCR DNA amplification and specific oligonucleotide primers. Overnight-collected feces of A. caninum-infected dogs were cultured, extracted and counted. All dogs were infected by the footpad method with the same dose (500+/−5%, of 3rd stage larvae of A. caninum. Larval challenge occurs on one of three consecutive days (at age 120+/−9 days) in 5 series. To minimize the difference in the infective L3 doses, each series included one dog from each (A-E group). […]
Adult Worm Count. Adult worms retained in the small and large intestines were collected. The small and large bowel will be collected and the small intestine will be suspended (the large bowel will not be suspended) in a container and incubated for at least two hours at 35° C. saline to collect the adult parasites. The adult worms were separated from the intestinal contents, counted, and preserved in formalin for subsequent count and analysis of sex, length and weight. Results and Analysis

“And” between values parts separate entries of the source, which are not always exact repeats. Equal entries are not always repeated.

B1: Ac-GST: A. caninum glutathione S transferase, SEQ ID NO: 77; Pichia pastoris expressed (protein, listed as Ancylostoma caninum)
chain: MVHYKLTYFNGRGLGECARQLFALADQQYEDIRVTHEDFPEIKPNLPFGQLPLLNEDGKELAQSNAINRYLARKFGFAGKTPFEEALVDSLADQMTDYRVEIKPFVYTAYGHQKFGDLETLKKDVMLPARDKFLGFITKFLKNNPSGFLVGDSVTWIDLLLAEHASDIQSKVPEYLEGFPEVKAHMEKVRSIPKLKKWIETRPETHF
On to B1, for which, in assay [1], the “Antibody titers, IgG1, GEOMEAN” value is reported as 13,500; the “Antibody titers, IgG2, GEOMEAN” value was 50,452; the “Antibody titers, IgG1” value was 13,500. Moreover, in assay [1] (listed as GST), the “Antibody titers, IgG2” value is 40,500 (4×) and 121,500. In the assay on A. caninum (dog, in vivo, listed as GST), the “worm burden reduction relative to AS03 controls” value is 40% and 41%. In the assay with A. caninum, the “Adult Hookworm Worm Counts, Intestine, Male, Average” value was 34; the “Adult Hookworm Worm Counts, Intestine, Female, Average” value is 44; the “Adult Hookworm Worm Counts, Total, Average” value was 83. Moreover, in the assay with A. caninum (individual dogs, listed as GST), the “Adult Hookworm Worm Counts, Colon, Female” value is 0 (2×) and 3 and 4 and 5; the “Adult Hookworm Worm Counts, Colon, Male” value is 0 (2×) and 4 and 7 and 2; the “Adult Hookworm Worm Counts, Intestine, Female” value was 81 and 26 and 36 (2×) and 41; the “Adult Hookworm Worm Counts, Intestine, Male” value was 50 and 34 and 19 and 33 (2×). In addition, the “Adult Hookworm Worm Counts, Total” value in the assay on A. caninum (individual dogs, listed as GST) was 131 and 67 and 55 and 80 and 81.

B2: Ac-MTP-2: A. caninum astacin protease antigen, SEQ ID NO: 42; Pichia pastoris expressed (protein, listed as Ancylostoma caninum)
chain: MKYFVLCFCAFFVVNADEEDDLPRNPLWDAYKDDNGKYVIPYVINGSYGEEKKVLFEMMDEIDKNTCVRFIPRSTEQDYIEIVNRLGEGTGAVVGKPGGKSIVLLESSKILNDPTPAPVMQTLMKIIGLPPEHIRPERKDHIKIHWENIEKGYEAFFALSSVKPDPYGIPYDYYSIMHYKKDAFAKPGTITMETLDKRYQDIIGNQEKPSKLDYKKICTKYKCDICMGEKMKY
As for B2, in assay [1], the “Antibody titers, IgG1, GEOMEAN” value is given as 62,850; the “Antibody titers, IgG2, GEOMEAN” value is listed as 121,500; the “Antibody titers, IgG1” value was 121,500 (2×) and 40,500 (3×); the “Antibody titers, IgG2” value is 364,500 and 121,500 (3×) and 40,500. Moreover, in the assay on A. caninum, the “Adult Hookworm Worm Counts, Intestine, Male, Average” value worked out at 61; the “Adult Hookworm Worm Counts, Intestine, Female, Average” value came to 60; the “Adult Hookworm Worm Counts, Total, Average” value was 132. Further, in the assay with A. caninum (individual dogs), the “Adult Hookworm Worm Counts, Colon, Female” value was 10 and 3 and 2 and 15 and 0; the “Adult Hookworm Worm Counts, Colon, Male” value is 11 and 2 and 1 (2×) and 9; the “Adult Hookworm Worm Counts, Intestine, Female” value was 71 and 51 and 41 and 65 and 73; the “Adult Hookworm Worm Counts, Intestine, Male” value was 64 (2×) and 49 and 41 and 87. For the same molecule, the “Adult Hookworm Worm Counts, Total” value in the assay with A. caninum (individual dogs) was 156 and 105 and 85 and 153 and 161.

B3: Ac-CYS: A. caninum cystatin antigen, SEQ ID NO: 100; Pichia pastoris expressed (protein, listed as Ancylostoma caninum)
chain: MPYLAFIVALLACTVMSGHGQMTGGLTKQDPNDPEHMARAWKAAKGINEDASNAGPYHMIPIKIVKAESQVVAGVRYIFEVLFGESTCKKGHMAATELSASNCELKEGGNRALYKVELWEKPWENFEQFNVEKIRNVAAGEQI
As for B3, in assay [1], the “Antibody titers, IgG1, GEOMEAN” value is recorded as 121,500; the “Antibody titers, IgG2, GEOMEAN” value is 364,500; the “Antibody titers, IgG1” value is 121,500 (3×) and 40,500 and 364,500; the “Antibody titers, IgG2” value was 364,500 (3×) and 121,500 and 1,093,500. Moreover, in the assay on A. caninum, the “Adult Hookworm Worm Counts, Intestine, Male, Average” value stood at 49; the “Adult Hookworm Worm Counts, Intestine, Female, Average” value came out at 56; the “Adult Hookworm Worm Counts, Total, Average” value is reported as 107. In addition, in the assay with A. caninum (individual dogs), the “Adult Hookworm Worm Counts, Colon, Female” value is 0 (3×) and 5 and 2; the “Adult Hookworm Worm Counts, Colon, Male” value was 0 (3×) and 1 and 3; the “Adult Hookworm Worm Counts, Intestine, Female” value is 56 and 85 and 29 and 67 and 41; the “Adult Hookworm Worm Counts, Intestine, Male” value was 44 and 81 and 38 and 48 and 36. Moreover, in the assay with A. caninum (individual dogs), the “Adult Hookworm Worm Counts, Intestine, Unk. Sex” value was found to be 1; the “Adult Hookworm Worm Counts, Total” value was 100 and 167 and 67 and 124 and 79.

The record behind these values is patent US7303752B2, “Hookworm vaccine” (The George Washington University, priority 2001, dated 2007).
